Here are results for 21 molecules from US20250243261A1 (CZ BIOHUB SF, published 2025).

To fix the notation:
B1: mAb114 UCA VH P60A-G61D / VL V43A IgG (antibody, V domains shown)
VH: EVQLVESGGGLVQPGGSLRLSCAASGFTFSSYDMHWVRQATGKGLEWVSAIGTAGDTYYADSVKGRFTISRENAKNSLYLQMNSLRAGDTAVYYCVRSDRGVAGLFDSWGQGTLVTVSS
VL: DIQMTQSPSSLSASVGDRVTITCRASQGISNYLAWYQQKPGKAPKLLIYAASTLQSGVPSRFSGSGSGTDFTLTISSLQPEDVATYYCQKYNSAPLTFGGGTKVEIK
B2: mAb114 WT IgG (antibody, V domains shown)
VH: EVQLVESGGGLIQPGGSLRLSCAASGFALRMYDMHWVRQTIDKRLEWVSAVGPSGDTYYADSVKGRFAVSRENAKNSLSLQMNSLTAGDTAIYYCVRSDRGVAGLFDSWGQGILVTVSS
VL: DIQMTQSPSSLSASVGDRITITCRASQAFDNYVAWYQQRPGKVPKLLISAASALHAGVPSRFSGSGSGTHFTLTISSLQPEDVATYYCQNYNSAPLTFGGGTKVEIK
B3: mAb114 UCA VH P60A-G61D-G88E-V96A / VL V43A IgG (antibody, V domains shown)
VH: EVQLVESGGGLVQPGGSLRLSCAASGFTFSSYDMHWVRQATGKGLEWVSAIGTAGDTYYADSVKGRFTISRENAKNSLYLQMNSLRAEDTAVYYCARSDRGVAGLFDSWGQGTLVTVSS
VL: DIQMTQSPSSLSASVGDRVTITCRASQGISNYLAWYQQKPGKAPKLLIYAASTLQSGVPSRFSGSGSGTDFTLTISSLQPEDVATYYCQKYNSAPLTFGGGTKVEIK
B4: mAb114 UCA VH T41P-P60A-G61D-E72D-G88E-V96A / VL V43A IgG (antibody, V domains shown)
VH: EVQLVESGGGLVQPGGSLRLSCAASGFTFSSYDMHWVRQAPGKGLEWVSAIGTAGDTYYADSVKGRFTISRDNAKNSLYLQMNSLRAEDTAVYYCARSDRGVAGLFDSWGQGTLVTVSS
VL: DIQMTQSPSSLSASVGDRVTITCRASQGISNYLAWYQQKPGKAPKLLIYAASTLQSGVPSRFSGSGSGTDFTLTISSLQPEDVATYYCQKYNSAPLTFGGGTKVEIK
B5: mAb114 UCA VL V43A IgG (antibody, V domains shown)
VH: EVQLVESGGGLVQPGGSLRLSCAASGFTFSSYDMHWVRQATGKGLEWVSAIGTAGDTYYPGSVKGRFTISRENAKNSLYLQMNSLRAGDTAVYYCVRSDRGVAGLFDSWGQGTLVTVSS
VL: DIQMTQSPSSLSASVGDRVTITCRASQGISNYLAWYQQKPGKAPKLLIYAASTLQSGVPSRFSGSGSGTDFTLTISSLQPEDVATYYCQKYNSAPLTFGGGTKVEIK
B6: mAb114 UCA VH V96A / VL V43A IgG (antibody, V domains shown)
VH: EVQLVESGGGLVQPGGSLRLSCAASGFTFSSYDMHWVRQATGKGLEWVSAIGTAGDTYYPGSVKGRFTISRENAKNSLYLQMNSLRAGDTAVYYCARSDRGVAGLFDSWGQGTLVTVSS
VL: DIQMTQSPSSLSASVGDRVTITCRASQGISNYLAWYQQKPGKAPKLLIYAASTLQSGVPSRFSGSGSGTDFTLTISSLQPEDVATYYCQKYNSAPLTFGGGTKVEIK
B7: mAb114 UCA VL K90Q IgG (antibody, V domains shown)
VH: EVQLVESGGGLVQPGGSLRLSCAASGFTFSSYDMHWVRQATGKGLEWVSAIGTAGDTYYPGSVKGRFTISRENAKNSLYLQMNSLRAGDTAVYYCVRSDRGVAGLFDSWGQGTLVTVSS
VL: DIQMTQSPSSLSASVGDRVTITCRASQGISNYLAWYQQKPGKVPKLLIYAASTLQSGVPSRFSGSGSGTDFTLTISSLQPEDVATYYCQQYNSAPLTFGGGTKVEIK
B8: mAb114 UCA VH P60A-G61D / VL V43A Fab (Fab, V domains shown)
VH: EVQLVESGGGLVQPGGSLRLSCAASGFTFSSYDMHWVRQATGKGLEWVSAIGTAGDTYYADSVKGRFTISRENAKNSLYLQMNSLRAGDTAVYYCVRSDRGVAGLFDSWGQGTLVTVSS
VL: DIQMTQSPSSLSASVGDRVTITCRASQGISNYLAWYQQKPGKAPKLLIYAASTLQSGVPSRFSGSGSGTDFTLTISSLQPEDVATYYCQKYNSAPLTFGGGTKVEIK
B9: mAb114 UCA VH P60A IgG (antibody, V domains shown)
VH: EVQLVESGGGLVQPGGSLRLSCAASGFTFSSYDMHWVRQATGKGLEWVSAIGTAGDTYYAGSVKGRFTISRENAKNSLYLQMNSLRAGDTAVYYCVRSDRGVAGLFDSWGQGTLVTVSS
VL: DIQMTQSPSSLSASVGDRVTITCRASQGISNYLAWYQQKPGKVPKLLIYAASTLQSGVPSRFSGSGSGTDFTLTISSLQPEDVATYYCQKYNSAPLTFGGGTKVEIK
B10: mAb114 UCA VH E72D IgG (antibody, V domains shown)
VH: EVQLVESGGGLVQPGGSLRLSCAASGFTFSSYDMHWVRQATGKGLEWVSAIGTAGDTYYPGSVKGRFTISRDNAKNSLYLQMNSLRAGDTAVYYCVRSDRGVAGLFDSWGQGTLVTVSS
VL: DIQMTQSPSSLSASVGDRVTITCRASQGISNYLAWYQQKPGKVPKLLIYAASTLQSGVPSRFSGSGSGTDFTLTISSLQPEDVATYYCQKYNSAPLTFGGGTKVEIK
B11: mAb114 UCA VH T41P IgG (antibody, V domains shown)
VH: EVQLVESGGGLVQPGGSLRLSCAASGFTFSSYDMHWVRQAPGKGLEWVSAIGTAGDTYYPGSVKGRFTISRENAKNSLYLQMNSLRAGDTAVYYCVRSDRGVAGLFDSWGQGTLVTVSS
VL: DIQMTQSPSSLSASVGDRVTITCRASQGISNYLAWYQQKPGKVPKLLIYAASTLQSGVPSRFSGSGSGTDFTLTISSLQPEDVATYYCQKYNSAPLTFGGGTKVEIK
B12: mAb114 UCA VH V96A IgG (antibody, V domains shown)
VH: EVQLVESGGGLVQPGGSLRLSCAASGFTFSSYDMHWVRQATGKGLEWVSAIGTAGDTYYPGSVKGRFTISRENAKNSLYLQMNSLRAGDTAVYYCARSDRGVAGLFDSWGQGTLVTVSS
VL: DIQMTQSPSSLSASVGDRVTITCRASQGISNYLAWYQQKPGKVPKLLIYAASTLQSGVPSRFSGSGSGTDFTLTISSLQPEDVATYYCQKYNSAPLTFGGGTKVEIK
B13: mAb114 UCA VH T41P-P60A-G61D-E72D-G88E-V96A IgG (antibody, V domains shown)
VH: EVQLVESGGGLVQPGGSLRLSCAASGFTFSSYDMHWVRQAPGKGLEWVSAIGTAGDTYYADSVKGRFTISRDNAKNSLYLQMNSLRAEDTAVYYCARSDRGVAGLFDSWGQGTLVTVSS
VL: DIQMTQSPSSLSASVGDRVTITCRASQGISNYLAWYQQKPGKVPKLLIYAASTLQSGVPSRFSGSGSGTDFTLTISSLQPEDVATYYCQKYNSAPLTFGGGTKVEIK
B14: mAb114 UCA VH G88E / VL V43A IgG (antibody, V domains shown)
VH: EVQLVESGGGLVQPGGSLRLSCAASGFTFSSYDMHWVRQATGKGLEWVSAIGTAGDTYYPGSVKGRFTISRENAKNSLYLQMNSLRAEDTAVYYCVRSDRGVAGLFDSWGQGTLVTVSS
VL: DIQMTQSPSSLSASVGDRVTITCRASQGISNYLAWYQQKPGKAPKLLIYAASTLQSGVPSRFSGSGSGTDFTLTISSLQPEDVATYYCQKYNSAPLTFGGGTKVEIK
B15: mAb114 UCA VH G88E IgG (antibody, V domains shown)
VH: EVQLVESGGGLVQPGGSLRLSCAASGFTFSSYDMHWVRQATGKGLEWVSAIGTAGDTYYPGSVKGRFTISRENAKNSLYLQMNSLRAEDTAVYYCVRSDRGVAGLFDSWGQGTLVTVSS
VL: DIQMTQSPSSLSASVGDRVTITCRASQGISNYLAWYQQKPGKVPKLLIYAASTLQSGVPSRFSGSGSGTDFTLTISSLQPEDVATYYCQKYNSAPLTFGGGTKVEIK
B16: mAb114 UCA VH A54G IgG (antibody, V domains shown)
VH: EVQLVESGGGLVQPGGSLRLSCAASGFTFSSYDMHWVRQATGKGLEWVSAIGTGGDTYYPGSVKGRFTISRENAKNSLYLQMNSLRAGDTAVYYCVRSDRGVAGLFDSWGQGTLVTVSS
VL: DIQMTQSPSSLSASVGDRVTITCRASQGISNYLAWYQQKPGKVPKLLIYAASTLQSGVPSRFSGSGSGTDFTLTISSLQPEDVATYYCQKYNSAPLTFGGGTKVEIK
B17: mAb114 UCA VH G61D IgG (antibody, V domains shown)
VH: EVQLVESGGGLVQPGGSLRLSCAASGFTFSSYDMHWVRQATGKGLEWVSAIGTAGDTYYPDSVKGRFTISRENAKNSLYLQMNSLRAGDTAVYYCVRSDRGVAGLFDSWGQGTLVTVSS
VL: DIQMTQSPSSLSASVGDRVTITCRASQGISNYLAWYQQKPGKVPKLLIYAASTLQSGVPSRFSGSGSGTDFTLTISSLQPEDVATYYCQKYNSAPLTFGGGTKVEIK
B18: mAb114 UCA VH P60A-G61D IgG (antibody, V domains shown)
VH: EVQLVESGGGLVQPGGSLRLSCAASGFTFSSYDMHWVRQATGKGLEWVSAIGTAGDTYYADSVKGRFTISRENAKNSLYLQMNSLRAGDTAVYYCVRSDRGVAGLFDSWGQGTLVTVSS
VL: DIQMTQSPSSLSASVGDRVTITCRASQGISNYLAWYQQKPGKVPKLLIYAASTLQSGVPSRFSGSGSGTDFTLTISSLQPEDVATYYCQKYNSAPLTFGGGTKVEIK
B19: mAb114 VH A68T-I113T / VL V43A Fab (Fab, V domains shown)
VH: EVQLVESGGGLIQPGGSLRLSCAASGFALRMYDMHWVRQTIDKRLEWVSAVGPSGDTYYADSVKGRFTVSRENAKNSLSLQMNSLTAGDTAIYYCVRSDRGVAGLFDSWGQGTLVTVSS
VL: DIQMTQSPSSLSASVGDRITITCRASQAFDNYVAWYQQRPGKAPKLLISAASALHAGVPSRFSGSGSGTHFTLTISSLQPEDVATYYCQNYNSAPLTFGGGTKVEIK
B20: mAb114 VH I41P-D42G-A68T-S79Y-I113T / VL V43A Fab (Fab, V domains shown)
VH: EVQLVESGGGLIQPGGSLRLSCAASGFALRMYDMHWVRQTPGKRLEWVSAVGPSGDTYYADSVKGRFTVSRENAKNSLYLQMNSLTAGDTAIYYCVRSDRGVAGLFDSWGQGTLVTVSS
VL: DIQMTQSPSSLSASVGDRITITCRASQAFDNYVAWYQQRPGKAPKLLISAASALHAGVPSRFSGSGSGTHFTLTISSLQPEDVATYYCQNYNSAPLTFGGGTKVEIK
B21: mAb114 VH A68T-E72D-S79Y-I113T / VL V43A Fab (Fab, V domains shown)
VH: EVQLVESGGGLIQPGGSLRLSCAASGFALRMYDMHWVRQTIDKRLEWVSAVGPSGDTYYADSVKGRFTVSRDNAKNSLYLQMNSLTAGDTAIYYCVRSDRGVAGLFDSWGQGTLVTVSS
VL: DIQMTQSPSSLSASVGDRITITCRASQAFDNYVAWYQQRPGKAPKLLISAASALHAGVPSRFSGSGSGTHFTLTISSLQPEDVATYYCQNYNSAPLTFGGGTKVEIK

The target in the first experiment is T1, Ebola GP ectodomain (Mayinga, Zaire, 1976) with the mucin-like domain deleted (Zaire ebolavirus (Mayinga, 1976), UniProt Q05320 33-650).
In the case of B1, the “fold improvement in Kd over wildtype” value is 90 fold.
For the molecule B2, the Kd (usually a measure of binding affinity in units of concentration) was less than 0.001 nM.

A further experiment has as its target T1, Ebola GP ectodomain (Mayinga, Zaire, …). The source holds these as a separate data set.
For B1, binding was characterised by a dissociation constant (Kd) of 5 nM. That is a single-digit nanomolar value.
The same measure, in the same setting: for B3 the value was 13 nM; for B4, 15 nM; for B5, 60 nM.
Take B6: the Kd was determined as 22 nM.
Same read-out and setting: for B7 the value was 620 nM; for B8, 480 nM.
Take B9: the Kd turned out to be 40000 nM.
In the case of B10, binding was characterised by a dissociation constant (Kd) of 200 nM.
On the same count and under the same terms, next, B11: 100 nM.
On the same count and under the same terms, next, B12: 110 nM; B13: 33 nM.
In the case of B14, the Kd stood at 13 nM.
Same read-out and setting: next, B15: 150 nM.
Same read-out and setting: next, B16: 80000 nM; B17: 100 nM.
Same read-out and setting: next, B18: 120 nM.

A further experiment has the same target. This is another data set of the same source.
In turn, B19 displayed a Kd of 0.17 nM. This lies in the sub-nanomolar range.
Still for that read-out and setting: for B20 the value was 0.069 nM.
B21: the equilibrium dissociation constant (Kd) was 0.076 nM.
